Measurements from patent US20150141617A1, “PRODUCTION AND PURIFICATION OF ACTIVE EUKARYOTIC FORMYLGLYCINEGENERATING ENZYME (FGE) VARIANTS” (Universität Bielefeld, priority 2013, published 2015).

Biological target: furin (Homo sapiens, UniProt P09958)
Assay: FGE processing in CHO-FD11 cells co-expressing furin
Assay type: cell-based
Set-up: expressed in transfected cells; host or cells: CHO-FD11 / CHO-FD11 Tet-On (furin-deficient CHO) cells, transient co-transfection with FGE
Text: The resulting constructs were verified by full-length sequencing of the coding region to exclude any PCR prone errors. Plasmids for expression of the PCs encoding human furin (Gene ID 5045), human PACE4 (=PCSK6, Gene ID 5046), murine […] (=Pcsk5, Gene ID 18552) and rat PC7 (=Pcsk7, Gene ID 29606) were kindly provided by Abdel-Majid Khatib (18). Note that the PC cDNAs were encoded as pIRES constructs coding also for enhanced green fluorescence protein (EGFP) such that EGFP expression levels serve as a measure of the expression levels of PCs.
3 μg of pSB-FGE-RGS-His6 vector was used for single transfections of HT1080, HeLa, HEK 293, BHK and CHO cells. Conditioned medium was collected after 24 h and centrifuged (500×g, 5 min) Cells were washed once with PBS, treated with trypsin (Lonza) and pelleted by 250×g to remove the medium. Cell pellets were resuspended in PBS (pH 7.4) containing protease inhibitor (PI) cocktail (Sigma) and lysed by sonication 3×10 s on ice. […]
In mammals, the proproteinconvertase family comprises nine enzymes that differ in their substrate specificity and tissue-specific expression and/or subcellular localization (17). […] Indeed, rFurin readily converted almost 90% of endogenous fl-FGE from untransfected HT1080 cells to the truncated form (FIG. 12E). […]

Chain of furin (P09958 108-794): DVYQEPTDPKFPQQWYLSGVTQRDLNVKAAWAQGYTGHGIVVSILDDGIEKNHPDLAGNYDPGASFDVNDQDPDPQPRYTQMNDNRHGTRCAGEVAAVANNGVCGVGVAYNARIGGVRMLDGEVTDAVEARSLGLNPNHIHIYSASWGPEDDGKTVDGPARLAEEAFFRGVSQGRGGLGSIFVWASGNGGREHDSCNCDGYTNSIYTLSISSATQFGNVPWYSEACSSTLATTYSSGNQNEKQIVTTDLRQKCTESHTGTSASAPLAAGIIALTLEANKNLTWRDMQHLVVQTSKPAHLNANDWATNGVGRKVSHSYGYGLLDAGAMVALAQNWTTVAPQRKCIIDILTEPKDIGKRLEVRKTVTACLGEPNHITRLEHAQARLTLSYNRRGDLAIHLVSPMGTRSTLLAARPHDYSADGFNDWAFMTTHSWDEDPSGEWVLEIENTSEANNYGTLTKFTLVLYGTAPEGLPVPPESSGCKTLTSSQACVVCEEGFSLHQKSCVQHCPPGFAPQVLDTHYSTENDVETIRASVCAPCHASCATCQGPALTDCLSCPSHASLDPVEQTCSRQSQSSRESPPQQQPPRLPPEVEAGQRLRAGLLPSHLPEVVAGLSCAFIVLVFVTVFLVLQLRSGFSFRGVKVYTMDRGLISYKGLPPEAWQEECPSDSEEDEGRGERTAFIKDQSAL

Δ72-FGE in secretions (coexpression of furin, CHO-FD11 Tet-On): ~100%
B1: FGE: human wild type full length formylglycine generating enzyme with RYSR furin cleavage motif, SEQ ID NO:2 (protein)
chain: ADEFSQEAGTGAGAGSLAGSCGCGTPQRPGAHGSSAAAHRYSREANAPGPVPGERQLAHSKMVPIPAGVFTMGTDDPQIKQDGEAPARRVTIDAFYMDAYEVSNTEFEKFVNSTGYLTEAEKFGDSFVFEGMLSEQVKTNIQQAVAAAPWWLPVKGANWRHPEGPDSTILHRPDHPVLHVSWNDAVAYCTWAGKRLPTEAEWEYSCRGGLHNRLFPWGNKLQPKGQHYANIWQGEFPVTNTGEDGFQGTAPVDAFPPNGYGLYNIVGNAWEWTSDWWTVHHSVEETLNPKGPPSGKDRVKKGGSYMCHRSYCYRYRCAARSQNTPDSSASNLGFRCAADRLPTMDSGRGSHHHHHHH
modifications: cloned matured acitve full length FGE with 6x His tag on C-terminus
form of secreted FGE (furin replenished by exogenous expression): all secreted FGE was in the truncated form
